According to patent US20080280828A1:

What was measured:
[1] = biological target: rabbit IgG F(ab')2 fragment (ICN) (rabbit); experiment: SPR (BIAcore 2000); normalised to binding of fSGED6 to IgG, corrected for relative molar amount of ligand
[2] = biological target: guinea pig IgG (Sigma) (guinea pig); experiment: as above
[3] = biological target: rat recombinant IgE (Serotech) (rat); experiment: as above
[4] = biological target: human IgG Fc fragment (ICN) (human); experiment: as above
[5] = biological target: rat recombinant IgE (Serotech) (rat); experiment: SPR (BIAcore 2000); ratio of RBA on IgE to RBA on guinea pig IgG
[6] = biological target: rabbit IgG F(ab')2 fragment (ICN) (rabbit); experiment: SPR (BIAcore 2000), Ig immobilised on CM5 chip, tick sample as analyte
[7] = biological target: guinea pig IgG (Sigma) (guinea pig); experiment: as above
[8] = biological target: rat recombinant IgE (Serotech) (rat); experiment: as above
[9] = biological target: human IgG Fc fragment (ICN) (human); experiment: as above
[10] = biological target: rabbit IgG F(ab')2 fragment (ICN) (rabbit); experiment: SPR (BIAcore 2000); RBA further normalised to amount of protein against fSGED6
[11] = biological target: guinea pig IgG (Sigma) (guinea pig); experiment: as above
[12] = biological target: rat recombinant IgE (Serotech) (rat); experiment: as above
[13] = biological target: human IgG Fc fragment (ICN) (human); experiment: as above
[14] = biological target: human IgG Fc fragment (ICN) (human); experiment: SPR (BIAcore 2000); ratio of RBA on Fc to RBA on F(ab')2

Chain of rat recombinant IgE (Serotech) (rat) (P01855 whole entry, the tested form may be a part): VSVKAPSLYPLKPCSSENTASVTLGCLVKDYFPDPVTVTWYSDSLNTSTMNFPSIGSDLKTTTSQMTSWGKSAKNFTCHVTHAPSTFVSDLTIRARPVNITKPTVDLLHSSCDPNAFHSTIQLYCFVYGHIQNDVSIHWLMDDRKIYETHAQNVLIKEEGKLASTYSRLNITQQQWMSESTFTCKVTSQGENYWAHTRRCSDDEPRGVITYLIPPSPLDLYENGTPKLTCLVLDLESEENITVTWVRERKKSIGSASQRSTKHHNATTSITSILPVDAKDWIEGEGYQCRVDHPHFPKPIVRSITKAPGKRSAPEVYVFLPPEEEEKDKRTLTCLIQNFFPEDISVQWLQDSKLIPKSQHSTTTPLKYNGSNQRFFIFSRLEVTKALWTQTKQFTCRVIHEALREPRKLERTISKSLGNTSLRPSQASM

| Substance | Relative binding activity (RBA) [1] | Relative binding activity (RBA) [2] | Relative binding activity (RBA) [3] | Relative binding activity (RBA) [4] | RBAIgE/RBAIgG [5] | Yield-binding (RU2) [6] [RU] | Yield-binding (RU2) [7] [RU] | Yield-binding (RU2) [8] [RU] | Yield-binding (RU2) [9] [RU] | RBA/mg protein [10] | RBA/mg protein [11] | RBA/mg protein [12] | RBA/mg protein [13] | RBAFc/RBAF(ab′)2 [14] |
| --- | --- | --- | --- | --- | --- | --- | --- | --- | --- | --- | --- | --- | --- | --- |
| partially fed (day 6) female tick salivary gland extract | 0 | 1 | 1.3 | 1.1 | 1.2 | 13 | 263 | 283 | 748 | 0 | 1 | 1.3 | 1.1 | – |
| partially fed (day 6) male tick salivary gland extract | 2.2 | 2.7 | 3.6 | 2.4 | 1.2 | 823 | 719 | 762 | 1720 | 4.5 | 5.5 | 7.3 | 4.9 | 1.1 |
| partially fed (day 7), dopamine-stimulated female tick saliva | 7.5 | 19.4 | 23.6 | 8.2 | 1.2 | 2770 | 5100 | 4960 | 5830 | 301 | 775 | 943 | 328 | 1.1 |
